# Reference: US20090220470A1
# What was measured:
# [1] = molecular target: K63 tetra-ubiquitin (Boston Biochem) (UniProt P0CG48); experiment: SPR (BiaCore 3000), dissociation phase fitted with a double exponential, first (rapid) phase
# [2] = molecular target: K48 tetra-ubiquitin (Boston Biochem) (UniProt P0CG48); experiment: as above
# [3] = molecular target: K63 tetra-ubiquitin (Boston Biochem) (UniProt P0CG48); experiment: SPR (BiaCore 3000), dissociation followed over two hours (data not shown)
# [4] = molecular target: K48 tetra-ubiquitin (Boston Biochem) (UniProt P0CG48); experiment: as above
# [5] = molecular target: Mono-ubiquitin (Sigma Aldrich) (UniProt P0CG48); experiment: SPR (Biacore), GST fusion captured on anti-GST antibody chip (150-220 RU), mono-ubiquitin injected in a 2-fold dilution series, steady-state fit
# [6] = molecular target: K63 tetra-ubiquitin (Boston Biochem) (UniProt P0CG48); experiment: SPR (BiaCore 3000), dissociation phase fitted with a double exponential, second (slow) phase
# [7] = molecular target: K48 tetra-ubiquitin (Boston Biochem) (UniProt P0CG48); experiment: as above
# [8] = molecular target: poly-ubiquitylated proteins (of cell lysates); experiment: cell-based or functional assay
# [9] = molecular target: K63 tetra-ubiquitin (Boston Biochem) (UniProt P0CG48); experiment: ratio of the literature Kd of the single UBA (Raasi et al.) to the SPR Kd of the TUBE
# [10] = molecular target: K48 tetra-ubiquitin (Boston Biochem) (UniProt P0CG48); experiment: as above
# [11] = molecular target: Mono-ubiquitin (Sigma Aldrich) (UniProt P0CG48); experiment: SPR (BiaCore 3000), captured via GST on anti-GST chip, mono-ubiquitin injected, steady state
# [12] = molecular target: K63 tetra-ubiquitin (Boston Biochem) (UniProt P0CG48); experiment: SPR (BiaCore 3000), GST-TUBE captured on anti-GST chip at low density, tetra-ubiquitin injected, steady-state fit
# [13] = molecular target: K48 tetra-ubiquitin (Boston Biochem) (UniProt P0CG48); experiment: as above
# [14] = molecular target: Mono-ubiquitin (Sigma Aldrich) (UniProt P0CG48); experiment: SPR (BIACORE 3000), GST-p62 UBA polypeptide captured on anti-GST antibody chip, ubiquitin injected
# [15] = molecular target: Mono-ubiquitin (Sigma Aldrich) (UniProt P0CG48); experiment: SPR (BIACORE 3000), GST-p62 UBA polypeptide captured on anti-GST chip, ubiquitin injected
# Ubiquilin1 TUBE (TUBE comprising 4 ubiquilin-1 UBA domains, GST fusion with His6 and SV5 tags) (designed binder), sequence (chain, part): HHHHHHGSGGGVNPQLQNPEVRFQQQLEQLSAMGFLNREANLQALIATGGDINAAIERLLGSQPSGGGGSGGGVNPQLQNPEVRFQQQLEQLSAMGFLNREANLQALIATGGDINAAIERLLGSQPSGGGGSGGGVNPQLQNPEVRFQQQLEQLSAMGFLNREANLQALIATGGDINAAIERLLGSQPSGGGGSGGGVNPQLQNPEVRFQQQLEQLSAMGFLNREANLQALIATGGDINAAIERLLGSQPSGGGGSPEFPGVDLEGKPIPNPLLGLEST
# hHR23A TUBE (TUBE comprising 4 hHR23a UBA-1 domains, GST fusion with His6 and SV5 tags) (designed binder), sequence (chain, part): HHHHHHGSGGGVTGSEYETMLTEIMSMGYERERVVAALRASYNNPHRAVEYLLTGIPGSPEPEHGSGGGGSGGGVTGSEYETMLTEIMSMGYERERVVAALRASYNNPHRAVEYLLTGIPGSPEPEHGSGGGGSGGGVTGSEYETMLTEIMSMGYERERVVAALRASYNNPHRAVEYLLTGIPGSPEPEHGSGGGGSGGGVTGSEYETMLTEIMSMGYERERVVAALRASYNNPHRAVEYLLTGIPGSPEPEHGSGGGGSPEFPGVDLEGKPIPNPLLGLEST
koff [1],t1/2 (first dissociation phase) [1],koff [2],t1/2 (first dissociation phase) [2],half-life [3],half-life [4],Kd [5],koff [6],koff [7],lowest TUBE concentration at which protection from de-ubiquitylation was detectable [8],Kd(UBA)/Kd(TUBE) [9],Kd(UBA)/Kd(TUBE) [10],binding stoichiometry (molar ratio ubiquitin:TUBE) (ubiquitin per TUBE) [11],Kd [12],Kd [13],N (stoichiometry of Ubiquitin-UBA interaction) [14],fold more binding (against one UBA copy) [15],Substance
0.03 s⁻¹,25 s,0.03 s⁻¹,25 s,> 5 h,> 5 h,30200 nM,0.0004 s⁻¹,0.0004 s⁻¹,0.17 µM,833 fold,84 fold,4,0.6 nM,14.3 nM,–,–,"Ubiquilin1 TUBE (TUBE comprising 4 ubiquilin-1 UBA domains, GST fusion with His6 and SV5 tags) (designed binder)"
0.03 s⁻¹,25 s,0.03 s⁻¹,25 s,> 5 h,> 5 h,65800 nM,0.0004 s⁻¹,0.0004 s⁻¹,0.17 µM,943 fold,663 fold,4,4.88 nM,9.35 nM,–,–,"hHR23A TUBE (TUBE comprising 4 hHR23a UBA-1 domains, GST fusion with His6 and SV5 tags) (designed binder)"
–,–,–,–,–,–,–,–,–,–,–,–,–,–,–,5.8,6 fold,p62×4 (four domains of the p62-UBA fused to GST; TUBE comprising 4 p62 UBA domains) (designed binder)
